Laboratory results from patent publication US20230303681A1 (published 2023).
“And” between values parts separate entries of the source, which are not always exact repeats. Equal entries are not always repeated. Where two headings read alike, the source gives them in different places.

Columns and labels:
human TMEM106B [1] = target: T1, human TMEM106B (human, UniProt Q9NUM4 2-274); test: FACS A549, 10 ug/ml
T1 construct: Full-length, on transiently transfected HEK293 cells, or natively expressed on HeLa, U251 and A549 cells; also called huTMEM106B; huTMEM
Protocol: (§1) Purified anti-TMEM106B antibodies were evaluated for their binding affinity to various TMEM106B-expressing cell lines including HEK293 transiently transfected with human/cyno/mouse TMEM106B, as well as HeLa cells and A549 cells. Antibodies tested for this experiment were mouse IgGs purified from hybridoma supernatant. Affinity binding to cells was determined as follows. Briefly, 1x10^5 cells were aliquoted per well in 96-well round bottom plates and incubated with 50 µL of purified anti-TMEM106B antibody at various concentrations (10x dilutions starting at 10 µg/ml) in FACS buffer (PBS + 2% FBS + 1 mM EDTA). […] Sorting was performed on a iQue (Intellicyt), with sort gates drawn to exclude dead (propidium iodide +) cells. Binding data was analyzed using median fluorescent intensity (MFI) and graphed in Prism. Values presented are MFI.

human TMEM106B [2] = target: T1, human TMEM106B; test: FACS A549, 1 ug/ml
Protocol: as §1

human TMEM106B [3] = target: T1, human TMEM106B; test: FACS, HEK293 transfectants;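 as to fold over negative controls: hybridoma supernatants incubated 30 min on ice with human TMEM106B-expressing HEK293 cells, binding read as anti-mouse-APC median fluorescence on live cells, relative to secondary-antibody-only wells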;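 as to fold-change over parental HEK293: flow cytometry binding of hybridoma supernatants to HEK293 cells transiently expressing human, cyno or mouse TMEM106B, read as anti-mouse-APC median fluorescence, live cells only, 30 min on ice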
Protocol: (§2) For screening of the hybridoma cell culture supernatants, humanTMEM106B-transfected HEK293 cells were aliquoted in 96-well round bottom plates (2x10^5 cells per well) and incubated with 50 µL of hybridoma cell culture supernatant on ice for 30 minutes. […] Median fluorescence intensity (MFI) of anti-mouse-APC MFI on TMEM106B+ HEK293 cells was calculated for each clone, and those displaying a signal of at least 2-fold over background compared to a secondary-antibody only well were taken forward for further analysis and characterization.

[4] = target: T2, cynomolgus (cyno) TMEM106B (cynomolgus, UniProt Q9NUM4 2-274 (human entry)); test: FACS, HEK293 transfectants;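 also: flow cytometry binding of hybridoma supernatants to HEK293 cells transiently expressing human, cyno or mouse TMEM106B, read as anti-mouse-APC median fluorescence, live cells only, 30 min on ice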
T2 construct: on transiently transfected HEK293 cells
Protocol: as §2

human TMEM106B [5] = target: T1, human TMEM106B; test: FACS HEK+huTMEM, 0.1 ug/ml;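 also: flow cytometry binding of purified mouse IgG antibodies to HEK293 cells transiently expressing TMEM106B, read as median fluorescence intensity with propidium iodide positive dead cells gated out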
human TMEM106B [6] = target: T1, human TMEM106B; test: FACS, HEK293 transfectants; remark: listed apart in the source;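 as to fold over negative controls: hybridoma supernatants incubated 30 min on ice with human TMEM106B-expressing HEK293 cells, binding read as anti-mouse-APC median fluorescence on live cells, relative to secondary-antibody-only wells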;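 as to fold-change over parental HEK293: flow cytometry binding of hybridoma supernatants to HEK293 cells transiently expressing human, cyno or mouse TMEM106B, read as anti-mouse-APC median fluorescence, live cells only, 30 min on ice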
human TMEM106B [7] = target: T1, human TMEM106B; test: FACS HEK+huTMEM, 0.01 ug/ml
Protocol: as §1

human TMEM106B [8] = target: T1, human TMEM106B; test: FACS HeLa;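 also: flow cytometry of cells incubated with hybridoma supernatant or purified antibody at 10 µg/ml for 1 h on ice, propidium iodide–positive dead cells gated out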
Protocol: (§3) All cells were cultured in either T75 or T150 flasks. […] The enzyme was quenched by addition of fresh media, and the cells were then distributed into 96-well plates for FACS analysis.
(§4) FACS analysis was performed as follows. Each cell type was aliquoted in 96-well round bottom plates (2x10^5 cells per well), washed once with FACS buffer (PBS + 2% FBS + 1 mM EDTA), and incubated with 50 µL of hybridoma supernatant or purified antibody (10 µg/ml in FACS buffer) on ice for 1 hour. […] Following this secondary incubation, the cells were again washed 2x with ice-cold FACS buffer and resuspended in a final volume of 50 µL of FACS buffer + 0.25 µl/well propidium iodide (Fisher Scientific # BDB556463). Analysis was performed on a FACSCanto system (BD Biosciences) or iQue (Intellicyt), with sort gates drawn to exclude dead (i.e., propidium iodide positive) cells.
(§5) Data is presented as mean fluorescence intensity (MFI).

GST (Pierce) [9] = target: T3, GST (Pierce) (UniProt P08515 1-218 = GST, limits assumed); test: ELISA, coated GST;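 also: ELISA on plates coated with GST alone at 1-10 µg/ml, antibodies applied at 100-1000x dilution, bound antibody detected by peroxidase substrate colour after acid stop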
T3 construct: control for the GST part of the fusion protein; also called GST protein; Glutathione-S-transferase

human TMEM106B [10] = target: T1, human TMEM106B; test: FACS U251;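 also: flow cytometry of cells exposed to antibody (purified at 10 µg/mL, or hybridoma supernatant) for 1 h on ice, with propidium iodide-positive dead cells gated out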
Protocol: as §3, §4, §5

human TMEM106B [11] = target: T1, human TMEM106B; test: FACS A549
Protocol: as §3, §4, §5

human TMEM106B [12] = target: T1, human TMEM106B; test: FACS HEK+huTMEM, 1.0 ug/ml
Protocol: as §1

[13] = target: T4, GST-fusion human TMEM106B truncated (human); test: ELISA, supernatant 100-1000x
T4 construct: also called GST-TMEM106B-truncated protein; GST-TMEM106B (truncated)
Protocol: (§6) Briefly, 96-well polystyrene plates were coated with 1-10 µg/ml of recombinant GST-TMEM106B-truncated protein or GST (Pierce) in PBS either at 370 Cfor 1-4 hours or overnight at 4 °C. Coated plates were then blocked with 5% BSA for 1-hour, washed 3×150 µL in TBST (Tris-buffered saline + 0.1% Tween20), and then the antibodies were added at various dilutions (100-1000x) in PBS. After 1-hour incubation (room temperature, with shaking), the plates were washed 3x150 µL in TBST. […] After a final set of washes (3×150µL in TBST), 100 µL of peroxidase substrate was added for 1 minute; the reaction was then quenched with 2N sulfuric acid (100 µL).

human TMEM106B [14] = target: T1, human TMEM106B; test: FACS HEK+huTMEM, 10 ug/ml;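 also: purified mouse IgG antibodies at 10 µg/ml bound to HEK293 cells transiently expressing human TMEM106B, measured by flow cytometry as median fluorescence intensity of propidium iodide negative live cells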
Protocol: as §1

mouse TMEM106B [15] = target: T5, mouse TMEM106B (mouse, UniProt Q80X71 2-275); test: FACS, HEK293 transfectants;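 also: flow cytometry binding of hybridoma supernatants to HEK293 cells transiently expressing human, cyno or mouse TMEM106B, read as anti-mouse-APC median fluorescence, live cells only, 30 min on ice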
T5 construct: on transiently transfected HEK293 cells, or natively expressed on mouse Neuro2a cells; also called moTMEM106B; murine TMEM106B
Protocol: as §2

GST (Pierce) [16] = target: T3, GST (Pierce); test: array SPR, Ab immobilised
mouse TMEM106B [17] = target: T5, mouse TMEM106B; test: FACS Neuro2a;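 also: flow cytometry of cells stained with antibody or hybridoma supernatant (purified antibody at 10 µg/ml) for 1 h on ice, propidium iodide–positive dead cells gated out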
Protocol: as §3, §4, §5

[18] = target: T4, GST-fusion human TMEM106B truncated; test: epitope binning, array SPR (Community 3, Bin 5)
Protocol: Epitope binning of the anti-TMEM106B antibodies was performed by Carterra (Salt Lake City, Nevada, USA) using a pre-mix epitope binning approach.

[19] = target: T4, GST-fusion human TMEM106B truncated; test: array SPR, Ab immobilised;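 as to koff: antibodies amine-coupled on an MX-96 chip, antigen flowed at 500 nM top concentration in 5-fold serial dilutions, GST alone run as nonspecific-binding control, duplicate measurements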;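 as to kon: antibodies amine-coupled on an MX-96 chip, antigen flowed at 500 nM top concentration in 5-fold serial dilutions, GST alone run as nonspecific-binding control, duplicate measurements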
Protocol: Binding kinetic characterization of the purified antibodies was performed by Carterra using a proprietary array SPR instrument (MX-96) as follows. Briefly, antibodies were prepared by diluting to 5 µg/ml in 10 mM Acetate, pH 4.5 (Carterra), at 150 µL/well and then made an additional dilution at 1:10 from there by titrating 11 µl into 100 µL. […] The chip was activated with 18 mM EDC (Sigma Bioxtra) and 4.5 mM S-NHS (Thermo Fisher) diluted in 100 mM MES, pH 5.5, for 7 minutes, and then antibodies were coupled for 10 minutes at 45 µL/minute. After coupling, the chip was returned to the MX-96 and quenched for 7 minutes using 1 M Ethanolamine pH 8.5 (Carterra).
Printed antibodies were profiled for their ability to bind GST-TMEM106B (truncated) protein (described above). Briefly, GST-TMEM106B (truncated) antigen was diluted to 18 µg/ml (500 nM of 36 kDa fusion protein) by mixing 2.7 µL of 2.0 mg/ml antigen into 298 µL Running buffer (HBS-EP+, Teknova with 1 mg/ml BSA, Sigma), and titrated 50 µl into 200 µl for 5-fold serial dilutions. In addition, binding to GST (Pierce) was assayed under the same conditions to determine the extent of any nonspecific binding of the anti-TMEM106B antibodies to GST portion of the TMEM106B-GST fusion protein. Duplicate measurements for each anti-TMEM106B antibody were taken to ensure reproducibility.

human TMEM106B [20] = target: T1, human TMEM106B; test: FACS titration on cells, apparent
Protocol: as §1

[21] = target: T4, GST-fusion human TMEM106B truncated; test: ELISA, supernatant
Protocol: as §6

[22] = target: T4, GST-fusion human TMEM106B truncated; test: array SPR, Ab immobilised; remark: listed apart in the source;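 as to koff: antibodies amine-coupled on an MX-96 chip, antigen flowed at 500 nM top concentration in 5-fold serial dilutions, GST alone run as nonspecific-binding control, duplicate measurements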;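 as to kon: antibodies amine-coupled on an MX-96 chip, antigen flowed at 500 nM top concentration in 5-fold serial dilutions, GST alone run as nonspecific-binding control, duplicate measurements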

Binder	MFI (human TMEM106B [1])	MFI (human TMEM106B [2])	fold-change over parental HEK293 (human TMEM106B [3]) [fold]	fold-change over parental HEK293 [4] [fold]	MFI (human TMEM106B [5])	fold over negative controls (human TMEM106B [6]) [fold]	MFI (human TMEM106B [7])	MFI (human TMEM106B [8])	binding result (GST (Pierce) [9])	MFI (human TMEM106B [10])	MFI (human TMEM106B [11])	MFI (human TMEM106B [12])	MFI (human TMEM106B [14])	fold-change over parental HEK293 (mouse TMEM106B [15]) [fold]	MFI (mouse TMEM106B [17])	Kd [19]	koff [19]	kon [19]	Kd (human TMEM106B [20]) [nM]	other results
anti-TMEM106B antibody TM-4 (antibody, V domains shown) VH: EVQVQQSGPVLVKPGASVKMSCKASGYTFTDYYMNWVKQSHGKNLEWIGVINPYNGGTSYHQKFKGKATLTVDKSSSTAYMELNSLTSEDSAVYYCARAATVVAGFDYWGQGTTLTVSS VL: QAVVTQESALTTSPGETVTLTCRSSTGAVTTSNYANWVQEKPDHLFTGLIGGTNNRAPGVPARFSGSLIGDKAALTITGAQTEDEAIYFCVLWYSNHLVFGGGTKLTVL	443	373	1.13	2.08	304	> 2	282	323	no binding	349	916	415	846	–	–	–	–	–	–	binding result [13]: no binding
anti-TMEM106B antibody TM-52 (antibody, V domains shown, mouse IgG from hybridoma) VH: QVQLQQPGAELVKPGASVKLSCKASGYTFTNYWMHWVKQRPGQGLDWIGNIDPSDSETHYNQKFKDKATLTVDKVSSTAYMQLSSLTSEDSAVYYCARRGYYGRSPFAYWGQGTLVTVSA VL: ENVLTQSPAIMSASPGEKVTMTCSASSSVSYMHWYQQKSNTSPKLWIYDTSKLASGVPGRFSGSGSGNSYSLTISSAEAEDVATYYCFQGSGYPLTFGAGTKLELK	443	401	17.3	22.6	1940	> 2	451	227	–	341	987	8200	7020	0.67	210	–	–	–	–	binding result (GST (Pierce) [16]): no binding; binding result [18]: no binding (tested: 55 nM antigen)
anti-TMEM106B antibody TM-1 (antibody, V domains shown) VH: QVQLQQSGAELVRPGTSVKVSCKASGYAFTNYLIEWVKQRPGQGLEWIGVINPGSGGTKYNEKLKGKATLTADKSSSTAYMQLSSLTSVDSAVYFCARRGYTIYDFYAMDYWGQGTSVTVSS VL: DVLMTQTPLSLPVSLGDHASISCRSSQSIVYNNGNTYLEWYLQKPGQSPKLLIYKVSNRFSGVPDRFSGSGSGTDFTLKISRVEAEDLGVYYCFQVSHVPFTFGSGTKLEIK	409	364	4.72	11.7	1330	> 2	655	253	no binding	244	1460	2010	2380	4.61	253	14 nM and 13 nM	0.00057 s⁻¹ and 0.00069 s⁻¹	40000 M⁻¹ s⁻¹ and 52000 M⁻¹ s⁻¹	~1	–
anti-TMEM106B antibody TM-22 (antibody, V domains shown) VH: QVQLQQSGPELVKPGASVKISCKASGYRFTSYYIHWVKQRPGQGLEWIGWIYPGNGITNYNEKFKGKATLTADTSSSTAYMQLSSLTSEDSAVYYCASPYYGIRNCYFDVWGTGTTVTVSS VL: DVLMTQTPLSLPVSLGDHASISCRSGQSIVHSNGNTYLEWYLQKPGQSPKLLIYKVSNRFSGVPDRFSGSGSGTDFTLKISRVEAEDLGIYYCFQGSHVPWTFGGGTKLEIK	478	399	–	–	833	–	500	408	no binding	313	1570	2100	3580	–	400	–	–	–	–	binding result [21]: binds
anti-TMEM106B antibody TM-19 (antibody, V domains shown) VH: DVQLQQSGAELVRPGASVKLSCTASGFNIKDYYMYWVKQRPEQGLEWIGRIDPEDGDTENAPKFRGMATMTADTSSNTAYLQLNSLTSEDTAVYYCTTRIGNLYHVMDYWGHGTSVTVSS VL: DVLMTQTPLSLPVSLGDQASISCRSSQSIVHSNGNTYLEWYLQKPGQAPKLLIDKVFNRFSGVPDRFSGSGSGTDFTLKISRVEAEDLGVYYCFQGSHVPFTFGSGTKLEIK	4960	3640	13.8	34.9	29800	> 2	3340	2430	no binding	878	1820	66800	79000	36	2140	–	–	–	~1	binding result [21]: binds
anti-TMEM106B antibody TM-2 (antibody, V domains shown) VH: HIQLVQSGPELKKPGETVKISCKASGYTFTEYPMHWVKQAPGKGFRWMGMIYTNTGEPTYAAEFKGRFAFSLETSASTGYLQINNLKNEDSATYFCVTAGYWGQGTLVTVSA VL: QIVLTQSPAILSASPGEKVTMTCRASSSVSYIHWFLQKPGSSPKPWIYATSNLASGVPFRFIGSGSGTSYSLTISGVEAEDSATYYCQQWSSNPSTFGAGTKLELK	3360	1090	9.84	32.3	4730	> 2	1440	2530	no binding	1410	1890	29300	55500	17.5	2900	0.9 nM and 1.2 nM	1.1e-05 s⁻¹ and 1e-05 s⁻¹	12000 M⁻¹ s⁻¹ and 8300 M⁻¹ s⁻¹	–	Kd [22]: ~1 nM
anti-TMEM106B antibody TM-18 (antibody, V domains shown) VH: EVRLQQSGPELVKPGASVKISCKTSGYTFTDYYMNWVKQSHGKSLEWIVNINPNNGDAFYNQKFKGKATLTVDKSSNTAYLDLRSLTSEDSAVYYCAREGQLRLRRVYAMDYWGQGTSVTVSS VL: DIVLAQSPASLAVSLGQRATISCRASKSVSISVYTYVHWYQQKPGQPPKLLIYLASNLESGVPARFSGSGSGTDFTLNIHPVEEEDAATYYCQHSRELPYTFGGGTKLEIK	5190	2620	18.8	38.8	10600	> 2	1740	1920	no binding	874	1490	67300	71700	29	1930	7.3 nM and 11 nM	7.2e-05 s⁻¹ and 9.4e-05 s⁻¹	9900 M⁻¹ s⁻¹ and 8500 M⁻¹ s⁻¹	~1	–
anti-TMEM106B antibody TM-50 (antibody, V domains shown, mouse IgG from hybridoma) VH: QVQLKESGPVLVAPSQSLSITCTVSGFSLTNYGVHWVRQPPGKGLEWLGVIWAGGNTNYNSALMSRLSISKDNSKSQVFLKMNSLQTDDTAMYYCAKEAKLLRSYAMDYWGQGTLVTVSA VL: DVQMTQTTSSLSASLGDRVTISCRASQDINNYLYWYQQKPDGTVKLLIYYTSMLHSGVPSRFSGSGSGTDYSLTISNLEQEDIATYFCQQGSTLMYTFGGGTKLEIK	445	381	16	17.8	305	> 2	294	159	–	260	580	314	396	17.5	257	–	–	–	–	binding result (GST (Pierce) [16]): no binding; binding result [18]: no binding (tested: 55 nM antigen)
